Among the data in paper PMC4072508, “Genome-Wide Prediction and Validation of Peptides That Bind Human Prosurvival Bcl-2 Proteins” (PLoS Computational Biology, 2014) are SPOT signal as a fraction of Bim BH3's signal on the same receptor and array values, retold here.

What all share (experiment): peptide SPOT array, c-Myc-tagged receptor at 1 uM or 100 nM, anti-c-Myc-Cy3
The target in one experiment is T1, Mcl-1, Q07820.
T1 chain: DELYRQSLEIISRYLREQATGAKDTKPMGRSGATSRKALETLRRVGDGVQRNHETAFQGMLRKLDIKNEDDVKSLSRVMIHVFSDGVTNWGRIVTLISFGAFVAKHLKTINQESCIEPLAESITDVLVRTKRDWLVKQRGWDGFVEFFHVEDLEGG

The next experiment deals with Bcl-xL, Q07817.
Another experiment has as its target T2, Bfl-1, Q16548.
T2 chain: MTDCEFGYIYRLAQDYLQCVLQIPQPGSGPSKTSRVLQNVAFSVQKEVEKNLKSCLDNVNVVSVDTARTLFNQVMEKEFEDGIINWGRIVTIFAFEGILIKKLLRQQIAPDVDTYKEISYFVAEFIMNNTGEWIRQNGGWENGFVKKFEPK

Chain of Bcl-xL, Q07817 (Q07817 1-209): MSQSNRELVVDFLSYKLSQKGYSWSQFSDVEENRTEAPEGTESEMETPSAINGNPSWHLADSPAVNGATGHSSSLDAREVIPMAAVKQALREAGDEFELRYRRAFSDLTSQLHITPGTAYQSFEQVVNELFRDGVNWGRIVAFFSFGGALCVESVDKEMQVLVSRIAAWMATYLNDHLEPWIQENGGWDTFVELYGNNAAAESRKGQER

As for GVMTQEVGQLDQDMGDDVYQQYRSLT [HUWE1], the SPOT signal as a fraction of Bim BH3's signal on the same receptor and array in the experiment with Mcl-1, Q07820 was found to be 0.01; with Bcl-xL, Q07817, 0.02; in the experiment with Bfl-1, Q16548, 0.01.
Regarding TSRINEVQVNLSLLLDDLLLPAQSTL [SPHKAP], the SPOT signal as a fraction of Bim BH3's signal on the same receptor and array came out at 0.04 with Mcl-1, Q07820; 0.05 in the experiment with Bcl-xL, Q07817; 0.03 in the experiment with Bfl-1, Q16548.
For the molecule WVKSIRICTPDGKLGDSCHPLTRKVP, the SPOT signal as a fraction of Bim BH3's signal on the same receptor and array with Mcl-1, Q07820 worked out at 0.75; in the experiment with Bcl-xL, Q07817, 1.01; in the experiment with Bfl-1, Q16548, 0.47.
As to WTLFVYTKGNDRMIGDDLVNSYHLLL [RBL1], the SPOT signal as a fraction of Bim BH3's signal on the same receptor and array with Mcl-1, Q07820 was 0.07; with Bcl-xL, Q07817, 0.08; with Bfl-1, Q16548, 0.05.
Take KLALEQRCRELRARLRRLEETLPRRI [KIF19]: the SPOT signal as a fraction of Bim BH3's signal on the same receptor and array was 0.72 with Mcl-1, Q07820; 1.14 with Bcl-xL, Q07817; 1.04 with Bfl-1, Q16548.
For KIETTPESRYDAQIGDSVSLTCSTTG [VCAM1], in that order: 0.03, 0.05 and 0.03.
With EQWAREIGAQLRRMLDDLNAQYERRR [BBC3], the SPOT signal as a fraction of Bim BH3's signal on the same receptor and array in the experiment with Mcl-1, Q07820 was 0.11; in the experiment with Bcl-xL, Q07817, 0.19; with Bfl-1, Q16548, 0.09.
The matching figures for QASREAGAAALRNVAQRLFENYQTQS [CCDC68]: 0.21, 0.36 and 0.18.
The matching figures for ELDEDDLEAELDALLDELLADEDSSY [CHMP5]: 0.03, 0.06 and 0.03.
For WVKSIRICTPMGKLGDSCHPLTRKVP, in that order: 0.81, 1.07 and 0.56.
With NNNMDVESRTMATMLDTLASRGLLDA [SEC16A], the SPOT signal as a fraction of Bim BH3's signal on the same receptor and array is 0.03 with Mcl-1, Q07820; 0.04 in the experiment with Bcl-xL, Q07817; 0.05 with Bfl-1, Q16548.
For PYLSKHRADRMRRLGDFLNQESFDLA [SMPD2], in that order: 0.71, 1.3 and 0.69.
For PKKKMTLSEIYQWILDNFPYYREAGS [FOXJ3], in that order: 0.16, 0.15 and 0.1.
The matching figures for FGEYSGISENDILVGDDFWIPETSFI [ROS1]: 0.04, 0.07 and 0.04.
Take LLDFFMVSILFSKLLDLLHKLQFVLT [PCNXL2]: the SPOT signal as a fraction of Bim BH3's signal on the same receptor and array came out at 0.08 in the experiment with Mcl-1, Q07820; 0.1 with Bcl-xL, Q07817; 0.07 with Bfl-1, Q16548.
The matching figures for RLRQLGVAKKFGVLSDNFKGKRIVLV [PPAT]: 1.04, 1.65 and 0.64.
The matching figures for TAAAAYRGAHLRGRLRTVYNTFRAAA [XXXX]: 1.64, 2.37 and 1.55.
The matching figures for SQGKHGFTMAMNAFGDMTNEEFRQMM [CTSL2]: 0.09, 0.08 and 0.08.
With TAGLRPGARLLRVCGQTLPSLRPEAA [SIPA1], the SPOT signal as a fraction of Bim BH3's signal on the same receptor and array with Mcl-1, Q07820 worked out at 0.91; in the experiment with Bcl-xL, Q07817, 1.22; with Bfl-1, Q16548, 0.8.
Consider YFKLFRASGDMRTNGDNYLYEIQLSS [IGF2R], for which the SPOT signal as a fraction of Bim BH3's signal on the same receptor and array with Mcl-1, Q07820 was found to be 0.43; in the experiment with Bcl-xL, Q07817 it was 0.41; with Bfl-1, Q16548, 0.47.
As to ISSYMVLAPVFGYLLDRYNRKYLMCG [SPNS1], the SPOT signal as a fraction of Bim BH3's signal on the same receptor and array with Mcl-1, Q07820 was determined as 0.73; with Bcl-xL, Q07817, 1.11; with Bfl-1, Q16548, 0.78.
The matching figures for MRSQLGKATALAIMGDKLWWADQVSE [LRP1]: 0.28, 0.22 and 0.14.
